T1: PTK7-CFP (UniProt Q13308)
T1 sequence: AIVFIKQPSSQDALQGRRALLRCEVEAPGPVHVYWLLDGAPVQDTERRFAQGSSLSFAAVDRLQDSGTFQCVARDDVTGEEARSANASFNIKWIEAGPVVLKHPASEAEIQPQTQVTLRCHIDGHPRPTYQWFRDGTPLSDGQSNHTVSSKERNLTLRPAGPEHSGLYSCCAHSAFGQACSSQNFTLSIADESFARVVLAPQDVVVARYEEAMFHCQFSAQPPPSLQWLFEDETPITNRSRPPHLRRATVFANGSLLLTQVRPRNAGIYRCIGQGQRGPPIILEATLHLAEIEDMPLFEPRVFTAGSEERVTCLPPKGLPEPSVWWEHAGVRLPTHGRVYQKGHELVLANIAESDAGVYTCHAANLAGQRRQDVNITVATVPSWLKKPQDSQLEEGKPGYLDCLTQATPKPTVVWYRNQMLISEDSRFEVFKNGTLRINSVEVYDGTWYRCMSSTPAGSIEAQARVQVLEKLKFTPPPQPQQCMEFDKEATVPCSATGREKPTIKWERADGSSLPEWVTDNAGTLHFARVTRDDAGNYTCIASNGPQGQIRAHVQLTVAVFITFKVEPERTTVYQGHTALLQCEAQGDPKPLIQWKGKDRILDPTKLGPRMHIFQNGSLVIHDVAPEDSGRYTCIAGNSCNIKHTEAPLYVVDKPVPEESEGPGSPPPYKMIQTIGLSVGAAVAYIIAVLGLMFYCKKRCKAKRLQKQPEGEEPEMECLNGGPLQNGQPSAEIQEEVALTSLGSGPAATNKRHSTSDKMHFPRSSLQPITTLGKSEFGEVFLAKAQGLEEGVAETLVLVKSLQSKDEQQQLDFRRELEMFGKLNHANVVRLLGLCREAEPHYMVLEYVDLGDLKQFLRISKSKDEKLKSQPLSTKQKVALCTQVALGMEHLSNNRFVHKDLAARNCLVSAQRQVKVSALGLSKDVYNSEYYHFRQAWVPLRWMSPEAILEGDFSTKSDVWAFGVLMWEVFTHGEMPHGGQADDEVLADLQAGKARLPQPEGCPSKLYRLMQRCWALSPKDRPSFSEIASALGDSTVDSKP

T2: PTK7 (recombinant, R&D Biosystems NC2081082) (UniProt Q13308 31-703)
T2 sequence: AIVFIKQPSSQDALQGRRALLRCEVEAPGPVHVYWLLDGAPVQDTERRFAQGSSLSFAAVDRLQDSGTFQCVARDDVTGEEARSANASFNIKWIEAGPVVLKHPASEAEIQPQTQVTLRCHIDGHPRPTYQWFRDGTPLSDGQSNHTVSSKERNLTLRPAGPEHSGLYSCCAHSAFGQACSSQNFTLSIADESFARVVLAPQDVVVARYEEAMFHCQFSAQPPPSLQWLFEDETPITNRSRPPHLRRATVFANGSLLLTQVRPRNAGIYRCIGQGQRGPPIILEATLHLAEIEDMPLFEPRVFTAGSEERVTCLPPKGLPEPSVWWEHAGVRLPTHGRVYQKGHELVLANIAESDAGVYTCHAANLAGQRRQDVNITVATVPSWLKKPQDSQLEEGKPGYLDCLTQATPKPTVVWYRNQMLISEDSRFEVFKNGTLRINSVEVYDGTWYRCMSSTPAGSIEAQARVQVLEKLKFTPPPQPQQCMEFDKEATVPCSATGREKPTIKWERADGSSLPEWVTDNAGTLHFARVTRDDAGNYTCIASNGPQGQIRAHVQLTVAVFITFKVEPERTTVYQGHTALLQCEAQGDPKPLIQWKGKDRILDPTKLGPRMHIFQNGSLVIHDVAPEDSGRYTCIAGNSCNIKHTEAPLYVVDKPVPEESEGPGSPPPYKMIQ

B1: sgc8c(27)-1 (structured_DNA)
DNA: ATCTAACTGCTGCGCCGCCGGGAAAATACTGTACGGTTAGA
modifications: T27 replaced by 5-octadiynyl-dU, clicked to azide-tethered N-acyl sulfonamide biotin electrophile 1

Assays:
[1] = target: T1, PTK7-CFP; experiment: covalent biotin transfer on cells, SA-HRP blot; conditions: EC50 of label transfer, not equilibrium Kd; transfected HEK293T, 1 h, 5 mM MgCl2; T27 replaced by 5-octadiynyl-dU, clicked to azide-tethered N-acyl sulfonamide biotin electrophile 1; DPBS with 5 mM MgCl2, 4.5 g/L glucose, pH 7.4, 37 C, 1 h (cells: plus 0.1 mg/mL yeast tRNA); read-out is proximity-driven covalent labeling, no equilibrium Kd …
[2] = target: T2, PTK7 (recombinant, R&D Biosystems …); experiment: covalent biotin transfer, SA-HRP blot; EC50 of label transfer, not equilibrium Kd; 100 nM PTK7, 1 h, 37 C, 5 mM MgCl2; DPBS with 5 mM MgCl2, 4.5 g/L glucose, pH 7.4, 37 C, 1 h (cells: plus 0.1 mg/mL yeast tRNA); read-out is proximity-driven covalent labeling, no equilibrium Kd measured; conditions: protein: commercial; label: transferable biotin; stem-loop (UNIFold prediction)

Row | Molecule | K half [1] | apparent K (half saturation) [2]
1 | ATCTAACTGCTGCGCCGCCGGGAAAATACTGTACGGTTAGA [sgc8c(27)-1] | 251 nM | –
2 | B1 | – | 203 nM

Source: PMC10401710, “Cell Surface Labeling and Detection of Protein Tyrosine Kinase 7 via Covalent Aptamers”
